Assay results from patent US7776563B2, “Methods for identifying agents for treating cardiovascular disease using inhibition of myeloperoxidase binding” (The Cleveland Clinic Foundation, priority 2004, dated 2010).
Ends that are not written are not given here.

target: binding of human apoA-1 to isolated human MPO (Homo sapiens, UniProt P05164); test: Binding of human apoA-1 to plate-bound MPO in the presence of peptide; settings: isolated human MPO bound to wells of a 96 well plate; apoA-1 binding determined in presence of peptide; FIG. 9
Sequence (P05164 279-745 limits assumed): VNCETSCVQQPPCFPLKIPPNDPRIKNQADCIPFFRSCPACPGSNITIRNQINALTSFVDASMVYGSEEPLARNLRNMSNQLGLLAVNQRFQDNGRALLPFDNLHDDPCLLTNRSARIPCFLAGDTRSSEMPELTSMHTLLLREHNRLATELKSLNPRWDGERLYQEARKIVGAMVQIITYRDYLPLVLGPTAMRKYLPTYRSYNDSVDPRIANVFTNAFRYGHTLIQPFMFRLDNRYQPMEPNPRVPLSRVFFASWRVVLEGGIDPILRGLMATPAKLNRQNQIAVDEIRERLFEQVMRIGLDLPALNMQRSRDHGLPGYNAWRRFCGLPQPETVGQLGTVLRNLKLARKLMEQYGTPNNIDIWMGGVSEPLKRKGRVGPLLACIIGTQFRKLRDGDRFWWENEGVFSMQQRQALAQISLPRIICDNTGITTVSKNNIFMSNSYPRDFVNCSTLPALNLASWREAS
Sequence (P05164 165-278 limits assumed): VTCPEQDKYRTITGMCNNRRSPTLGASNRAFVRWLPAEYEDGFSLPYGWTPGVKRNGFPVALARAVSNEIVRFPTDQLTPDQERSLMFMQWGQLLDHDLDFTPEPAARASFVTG
Experimental: Isolated human MPO was bound to the wells in a 96 well plate and then the binding of human apoA-1 to the MPO was determined in the presence of a peptide comprising the sequence N-Ac-(L) AEYHAKATEHLSTL, SEQ ID NO: 2 (also known as the L-ApoA-MPO peptide), a sequence comprising SEQ ID NO: 2 and D amino acids, also known as the D-apoA-MPO peptide, and a peptide comprising the sequence, N-Ac (L) KHETHSLAYAAET, SEQ ID NO: 4.

Row | effect on binding of apo A-1 to MPO | Substance
1 | inhibited binding of apo A-1 to MPO | D-apoA-MPO peptide: a sequence comprising SEQ ID NO: 2 (AEYHAKATEHLSTL) and D amino acids (also: D amino acids (positions not given here); listed as Homo sapiens)
2 | had no effect on MPO-apoA-1 binding | N-Ac (L) KHETHSLAYAAET (Ac-KHETHSLAYAAET; listed as Homo sapiens) [SEQ ID NO: 4, reference compound]
3 | inhibited binding of apo A-1 to MPO | N-Ac-(L) AEYHAKATEHLSTL (Ac-AEYHAKATEHLSTL; listed as Homo sapiens) [L-ApoA-MPO peptide]
